Assay results: US20160346402A1 (Bayer, published 2016)

Columns and labels:
[1] = target: T1, TPP-2607, TweakR-ECD-34-68-hIgGFc-His-S37A (human); assay: alanine scan ELISA: IgG coated 1 µg/ml, HEK293 supernatant of TWEAKR(34-68)-Fc construct, anti-HIS-HRP
T1 construct: Used as HEK293 supernatant; also called S37A mutein

[2] = target: T2, TPP-2608, TweakR-ECD-34-68-hIgGFc-His-R38A (human); assay: as above
T2 construct: Used as HEK293 supernatant; also called R38A mutein

[3] = target: T3, TPP-2609, TweakR-ECD-34-68-hIgGFc-His-S40A (human); assay: as above
T3 construct: Used as HEK293 supernatant; also called S40A mutein

[4] = target: T4, TPP-2610, TweakR-ECD-34-68-hIgGFc-His-S41A (human); assay: as above
T4 construct: Used as HEK293 supernatant; also called S41A mutein

[5] = target: T5, TPP-2611, TweakR-ECD-34-68-hIgGFc-His-W42A (human); assay: as above
T5 construct: Used as HEK293 supernatant; also called W42A mutein (34-68)

[6] = target: T6, TPP-2612, TweakR-ECD-34-68-hIgGFc-His-S43A (human); assay: as above
T6 construct: Used as HEK293 supernatant; also called S43A mutein

[7] = target: T7, TPP-2613, TweakR-ECD-34-68-hIgGFc-His-D45A (human); assay: as above
T7 construct: Used as HEK293 supernatant; also called D45A mutein

[8] = target: T8, TPP-2615, TweakR-ECD-34-68-hIgGFc-His-K48A (human); assay: as above
T8 construct: Used as HEK293 supernatant; also called K48A mutein

[9] = target: T9, TPP-2616, TweakR-ECD-34-68-hIgGFc-His-D51A (human); assay: as above
T9 construct: Used as HEK293 supernatant; also called D51A mutein

[10] = target: T10, TPP-2617, TweakR-ECD-34-68-hIgGFc-His-S54A (human); assay: as above
T10 construct: Used as HEK293 supernatant; also called S54A mutein

[11] = target: T11, TPP-2618, TweakR-ECD-34-68-hIgGFc-His-R56A (human); assay: as above
T11 construct: Used as HEK293 supernatant; also called R56A mutein

[12] = target: T12, TPP-2619, TweakR-ECD-34-68-hIgGFc-His-R58A (human); assay: as above
T12 construct: Used as HEK293 supernatant; also called R58A mutein

[13] = target: T13, TPP-2620, TweakR-ECD-34-68-hIgGFc-His-P59A (human); assay: as above
T13 construct: Used as HEK293 supernatant; also called P59A mutein

[14] = target: T14, TPP-2621, TweakR-ECD-34-68-hIgGFc-His-H60A (human); assay: as above
T14 construct: Used as HEK293 supernatant; also called H60A mutein

[15] = target: T15, TPP-2622, TweakR-ECD-34-68-hIgGFc-His-S61A (human); assay: as above
T15 construct: Used as HEK293 supernatant; also called S61A mutein

[16] = target: T16, TPP-2623, TweakR-ECD-34-68-hIgGFc-His-D62A (human); assay: as above
T16 construct: Used as HEK293 supernatant; also called D62A mutein

[17] = target: T17, TPP-2624, TweakR-ECD-34-68-hIgGFc-His-F63A (human); assay: as above
T17 construct: Used as HEK293 supernatant; also called F63A mutein

[18] = target: T18, TPP-2625, TweakR-ECD-34-68-hIgGFc-His-L65A (human); assay: as above
T18 construct: Used as HEK293 supernatant; also called L65A mutein

[19] = target: T19, TPP-2202, TWEAKR-ECD-28-80-hIgGFc-His (human); assay: ELISA: TPP-2202 (TWEAKR 28-80-Fc) coated at 1 µg/ml; biotinylated IgG at 0.08 µg/ml (open bars) and 0.3 µg/ml (solid bars; legend of FIG. 3 prints 0.03); streptavidin-HRP, Amplex Red; Y = signal [Rfu]
T19 construct: also called TWEAKR-Fc fusion protein; full-length ectodomain Fc fusion
Procedure: FIG. 3: Interaction of the TWEAKR ectodomain with antibodies and reference antibodies. […] Detection was carried out using streptavidin-HRP and Amplex Red substrate.
Detection was carried out using streptavidin-HRP and Amplex Red substrate. IgGs were biotinylated using an about 2-fold molar excess of biotin-LC-NHS (Pierce; Cat. No. 21347) according to the instructions of the manufacturer and desalted using Zeba desalting columns (Pierce; Cat. No. 89889).

T19 sequence (chain, as listed by the source limits assumed): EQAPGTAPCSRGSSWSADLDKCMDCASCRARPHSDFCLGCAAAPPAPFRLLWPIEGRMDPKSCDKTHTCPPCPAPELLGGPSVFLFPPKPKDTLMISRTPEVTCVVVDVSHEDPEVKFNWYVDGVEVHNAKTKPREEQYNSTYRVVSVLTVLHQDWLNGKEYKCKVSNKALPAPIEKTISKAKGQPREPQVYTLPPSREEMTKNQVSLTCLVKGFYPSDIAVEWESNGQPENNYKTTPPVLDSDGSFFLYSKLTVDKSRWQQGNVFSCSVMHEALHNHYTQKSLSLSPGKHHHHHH

B1: P4A8(TPP-1324) (antibody, human IgG1, kappa, V domains shown)
VH: QVQLVQSGAEVKKPGASVKVSCKGSGYTFTDYGMHWVRQAPGQGLEWMGVISTYNGYTNYNQKFKGRVTMTVDKSTSTAYMELRSLRSDDTAVYYCARAYYGNLYYAMDYWGQGTLVTVSS
VL: DIVLTQSPASLAVSLGQRATISCRASKSVSTSSYSYMHWYQQKPGQPPKLLIKYASNLESGVPARFSGSGSGTDFSLNIHPMEEDDTAMYFCQHSRELPFTFGGGTKLEIKR
notes: Comparative antibody; variable domains from WO2009/140177 with human IgG1 constant region added
B1: no binding [1]; no binding [2]; no binding [3]. B1: no binding [4]; no binding [5]; no binding [6]. B1: no binding [7]; no binding [8]; no binding [9]. B1: no binding [10]; no binding [11]; no binding [12]. B1: no binding [13]; no binding [14]; no binding [15]. B1: no binding [16]; no binding [17]; no binding [18]. B1: binds [19].
